Values belong to the molecule of their own block, whether it stands above or below them.
Tests used:
[1] = molecular target: feline IgM-Fc pentamer (FLAG-tagged feline IgM-Fc with Myc-tagged feline IgJ); assay: immunoblotting (non-reducing conditions) of IgM-Fc bound AIM, quantified using NIH ImageJ; conditions: supernatant after a co-culture of feline Fc-expressing HEK293T cells and cells expressing wild-type, chimeric, or mutant feline AIM; parent: est. 1; read off a plot
[2] = molecular target: feline IgM-Fc pentamer (FLAG-tagged feline IgM-Fc with Myc-tagged feline IgJ) (cat); assay: SPR; Biacore T100, 25 °C; IgM-Fc pentamers amine-coupled on a CM5 chip (1000 RU), BSA reference cell; AIM as analyte 50 nM to 5 μM in D-PBS(-) pH 7.4, single-cycle kinetics, heterogeneous ligand model
[3] = molecular target: mouse IgM-Fc pentamer (FLAG-IgM-Fc with IgJ-Myc) (mouse) (UniProt P01872); assay: as above
[4] = molecular target: T1, mouse IgM-Fc pentamer (FLAG-IgM-Fc with IgJ-Myc) (mouse, UniProt P01872 1-454; P01592 22-159); assay: SPR
T1 chain 1: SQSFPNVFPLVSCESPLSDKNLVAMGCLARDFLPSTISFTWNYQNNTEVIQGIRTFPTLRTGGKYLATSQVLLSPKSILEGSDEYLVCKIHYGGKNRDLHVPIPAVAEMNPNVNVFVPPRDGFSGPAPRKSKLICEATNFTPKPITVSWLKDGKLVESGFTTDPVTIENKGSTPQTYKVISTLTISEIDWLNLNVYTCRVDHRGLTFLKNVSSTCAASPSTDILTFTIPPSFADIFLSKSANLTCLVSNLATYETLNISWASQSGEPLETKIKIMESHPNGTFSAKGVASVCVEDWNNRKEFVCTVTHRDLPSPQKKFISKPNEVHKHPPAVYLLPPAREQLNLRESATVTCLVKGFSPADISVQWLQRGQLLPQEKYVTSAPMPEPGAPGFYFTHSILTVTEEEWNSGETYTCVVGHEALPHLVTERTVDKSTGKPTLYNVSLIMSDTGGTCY
T1 chain 2: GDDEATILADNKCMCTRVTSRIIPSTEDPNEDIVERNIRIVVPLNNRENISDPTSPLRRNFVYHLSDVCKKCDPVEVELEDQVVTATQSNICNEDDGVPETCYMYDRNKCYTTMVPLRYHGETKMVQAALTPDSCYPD

[5] = molecular target: T1, mouse IgM-Fc pentamer (FLAG-IgM-Fc with …); assay: SPR

- ratio to parent [1]: 0.58
Molecule: recombinant feline AIM (3-SRCR) (from UniProt A0A1E1GEY0) R299K; R300I; R338K

- Kd [3]: 5.82 µM
- koff [3]: 0.0223 s⁻¹
- kon [3]: 3830 M⁻¹ s⁻¹
B1: recombinant mouse AIM (natural protein)
chain: ESPTKVQLVGGAHRCEGRVEVEHNGQWGTVCDDGWDRRDVAVVCRELNCGAVIQTPRGASYQPPASEQRVLIQGVDCNGTEDTLAQCELNYDVFDCSHEEDAGAQCENPDSDLLFIPEDVRLVDGPGHCQGRVEVLHQSQWSTVCKAGWNLQVSKVVCRQLGCGRALLTYGSCNKNTQGKGPIWMGKMSCSGQEANLRSCLLSRLENNCTHGEDTWMECEDPFELKLVGGDTPCSGRLEVLHKGSWGSVCDDNWGEKEDQVVCKQLGCGKSLHPSPKTRKIYGPGAGRIWLDDVNCSGKEQSLEFCRHRLWGYHDCTHKEDVEVICTDFDV

Continued, molecule first:

Molecule: recombinant feline AIM (4-SRCR) (from UniProt A0A1E1GEY0 20-355) (natural protein)
- koff [2]: 4.38e-05 s⁻¹
- kon [2]: 9.52 M⁻¹ s⁻¹

B2: recombinant feline AIM (3-SRCR) (natural protein)
chain: SFSRVRLVGGDHRCEGRVELQQDDEWVTVCDDYWNMDSVAVLCRELGCGAARKTMSGTVYGPVTPKDQKVFIHLFRCNGIEESLSQCEREDAIGCSHVEDAGAVCEPIYTGPGILGPESVRLADGPGRCQGRVEVKFRGEWSSVCQAGWSFAAAKVVCRQLGCGRATLTRRGCNKATQGQGAIWQRKASCSGQEVSLQDCLSEVWEHNCTHNEDVWVECEDPFALKLVGGRSHCEGRLEVLHKGEWGSVCDDGWGQDADRVVCRQLGCGQPLSPPVKVRRRFGPGVGRIWLDDVKCSGKEPSLEQCLHRSWGYHNCNHREDVAVVCEEQQSGLPDA
- koff [4]: 0.000106 s⁻¹
- Kd [5]: 14.6 nM
- Kd [2]: 5.97 nM
- koff [2]: 5.65e-05 s⁻¹
- kon [2]: 9460 M⁻¹ s⁻¹

From article PMC5059666 (2016)
